The target in test [1] is T1, human complement C2 (human, UniProt P06681 21-752).
T1 sequence: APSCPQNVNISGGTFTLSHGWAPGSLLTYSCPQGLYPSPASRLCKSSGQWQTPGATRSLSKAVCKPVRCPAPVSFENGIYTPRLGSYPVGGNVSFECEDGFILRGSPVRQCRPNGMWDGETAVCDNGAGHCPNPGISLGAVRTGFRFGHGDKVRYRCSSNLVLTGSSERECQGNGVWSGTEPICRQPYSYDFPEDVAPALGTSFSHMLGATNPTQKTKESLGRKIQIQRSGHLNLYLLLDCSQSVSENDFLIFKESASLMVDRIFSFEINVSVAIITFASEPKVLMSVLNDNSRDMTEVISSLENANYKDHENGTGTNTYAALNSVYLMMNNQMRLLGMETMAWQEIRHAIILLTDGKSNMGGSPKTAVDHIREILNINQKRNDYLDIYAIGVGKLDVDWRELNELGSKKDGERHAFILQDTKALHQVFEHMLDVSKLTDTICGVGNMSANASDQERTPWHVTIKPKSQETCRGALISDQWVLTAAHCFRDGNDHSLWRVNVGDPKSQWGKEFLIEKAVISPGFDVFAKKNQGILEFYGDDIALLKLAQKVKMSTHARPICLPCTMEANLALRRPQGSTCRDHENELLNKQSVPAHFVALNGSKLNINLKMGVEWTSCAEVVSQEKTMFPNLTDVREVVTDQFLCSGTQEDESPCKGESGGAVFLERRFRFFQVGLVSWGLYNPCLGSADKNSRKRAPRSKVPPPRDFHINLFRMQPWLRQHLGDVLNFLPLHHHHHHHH
In words: cell-based or functional assay.

The target of test [2] is T2, cynomolgus monkey C2 (cynomolgus monkey, UniProt G8F3W0 21-752).
T2 sequence: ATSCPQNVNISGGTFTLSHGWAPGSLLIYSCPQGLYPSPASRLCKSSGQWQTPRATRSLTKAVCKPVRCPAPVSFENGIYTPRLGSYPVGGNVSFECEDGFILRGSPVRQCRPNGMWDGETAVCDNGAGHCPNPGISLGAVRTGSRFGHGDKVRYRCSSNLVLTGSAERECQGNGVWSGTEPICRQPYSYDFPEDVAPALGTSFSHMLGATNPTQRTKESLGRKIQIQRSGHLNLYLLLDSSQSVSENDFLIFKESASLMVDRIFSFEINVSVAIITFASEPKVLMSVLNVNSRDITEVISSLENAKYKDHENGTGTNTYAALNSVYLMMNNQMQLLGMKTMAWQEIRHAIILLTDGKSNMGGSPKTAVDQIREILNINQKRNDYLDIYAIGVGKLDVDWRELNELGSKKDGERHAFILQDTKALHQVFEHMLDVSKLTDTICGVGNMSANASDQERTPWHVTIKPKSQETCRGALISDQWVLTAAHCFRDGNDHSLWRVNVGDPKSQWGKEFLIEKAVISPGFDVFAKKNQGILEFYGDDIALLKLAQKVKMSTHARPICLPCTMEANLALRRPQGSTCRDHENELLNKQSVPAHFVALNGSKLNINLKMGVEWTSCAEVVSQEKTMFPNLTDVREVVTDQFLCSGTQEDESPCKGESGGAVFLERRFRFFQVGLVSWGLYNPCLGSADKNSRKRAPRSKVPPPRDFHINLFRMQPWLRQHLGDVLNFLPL
In words: cell-based or functional assay.

For test [3], the target named is T2, cynomolgus monkey C2. Description: SPR, mAb captured, cyno C2 analyte, pH 7.3. In general terms: SPR reads the build-up and loss of mass on a sensor chip optically.
Description: (§1) Surface plasmon resonance (SPR, Biacore) was used for all binding affinity analyses. In brief, goat anti-human IgG was directly immobilised onto the carboxymethyl dextran surface of CM5 sensorchips to approximately 12,000 RU using standard NHS/EDC chemistry at pH 5. The immobilised antibody surface was pre-conditioned with ten injections of polyclonal human IgG (Privigen 60 s) prepared at 1 μg/mL. Ligands (anti-C2 mAbs) were captured at the beginning of each cycle as described below. An adjacent spot or flow cell in which only Polyclonal IgG was capture was used as a reference surface. The goat anti-human IgG Fc antibody surface was regenerate in 100 mM H3PO4, injected for 45 seconds at the end of each cycle. Experiments were performed at 37° C. and the flow rate of each experiment was kept constant at 30 μL/min.
(§2) In addition to human C2, the pH dependent anti-C2 antibodies were also tested for their ability to bind to C2 from other mammalian species using the SPR methods described above in order to identify suitable surrogate species for in vivo testing. The antibodies were tested for binding at neutral pH against C2 from cynomolgus monkeys, mice, dogs, rabbits, rats, pigs, and sheep.
The target in test [4] is T1, human complement C2. In words: SPR, mAb captured, C2 analyte, HBS-EP, pH 7.3.
Description: as §1
(§3) The pH dependent anti-C2 antibodies and their germlined versions were tested for their affinity to C2 at pH 7.3 (neutral pH) and pH 6.0 (early endosome pH) using the SPR methods described above in HBS-EP buffer.
The target in another test is T3, mouse C2 (mouse, UniProt P21180 19-760, limits assumed).
T3 sequence (looked up): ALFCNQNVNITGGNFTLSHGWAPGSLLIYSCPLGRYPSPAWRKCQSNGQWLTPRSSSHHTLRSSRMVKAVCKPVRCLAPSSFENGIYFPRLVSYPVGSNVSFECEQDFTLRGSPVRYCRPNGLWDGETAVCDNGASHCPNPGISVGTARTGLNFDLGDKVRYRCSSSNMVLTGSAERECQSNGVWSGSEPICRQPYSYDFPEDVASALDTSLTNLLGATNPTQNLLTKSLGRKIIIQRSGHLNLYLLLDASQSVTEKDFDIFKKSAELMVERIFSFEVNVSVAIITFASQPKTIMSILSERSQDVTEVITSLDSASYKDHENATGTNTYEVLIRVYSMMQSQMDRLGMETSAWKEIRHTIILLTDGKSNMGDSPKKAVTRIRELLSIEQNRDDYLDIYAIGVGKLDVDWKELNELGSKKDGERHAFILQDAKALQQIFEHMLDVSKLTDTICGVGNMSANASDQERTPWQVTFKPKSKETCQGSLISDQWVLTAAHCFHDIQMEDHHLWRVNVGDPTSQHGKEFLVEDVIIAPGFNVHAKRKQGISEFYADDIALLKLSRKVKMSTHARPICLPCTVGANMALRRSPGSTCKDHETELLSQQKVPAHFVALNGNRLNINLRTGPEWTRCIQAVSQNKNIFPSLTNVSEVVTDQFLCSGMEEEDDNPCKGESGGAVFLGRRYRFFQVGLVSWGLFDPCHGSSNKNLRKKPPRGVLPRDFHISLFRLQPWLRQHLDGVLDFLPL
Description: SPR, mouse C2, pH 7.3; VWB = very weak binding, KD not determined.

The target in test [5] is T1, human complement C2. In words: cell-based or functional assay. The source holds these as a separate data set.
Test [6] concerns the target T2, cynomolgus monkey C2. In words: cell-based or functional assay. The source holds these as a separate data set.
Test [7] concerns the target T2, cynomolgus monkey C2. In words: SPR, mAb captured, cyno C2 analyte, pH 6.0.
Description: as §1, §2
Test [8] deals with T1, human complement C2. In words: SPR, mAb captured, C2 analyte, HBS-EP, pH 6.0.
Description: as §1, §3
Test [9] concerns the target T1, human complement C2. Description: SPR, mAb captured, C2 analyte, MHAs buffer, pH 7.3.
Description: as §1
(§4) This buffer contains ammonium sulfate instead of sodium chloride.
For test [10], the target named is T1, human complement C2. In words: SPR, mAb captured, C2 analyte, MHAs buffer, pH 5.8, steady state.
Description: as §1, §4
Test [11] concerns the target T1, human complement C2. Description: SPR, mAb captured, C2 analyte, MHAs buffer, pH 6.0, steady state.
Description: as §1, §4

A word on the Kd: it is the concentration at which binding is half-saturated.

B1: RF16-203G (antibody, V domains shown)
VH: EVQLLESGGGLVQPGGSLRLSCAASGFTFSRYYMMWVRQAPGKGLEWVSSIGSSGGTTNYADSVKGRFTISRDNSKNTLYLQMNSLRAEDTAVYYCAKGGMVLGVVNIWGQGTLVTVSS
VL: SYELTQPPSVSVSPGQTASITCSGDKLGEKYVSWYQQKPGQSPVLVIYQDIKRPSGIPERFSGSNSGNTATLTISGTQAMDEADYYCQTWGTGGIQVFGGGTKLTVLG
As to B1, in the test with human complement C2 [1], the “IC50, inhibition of human classical complement pathway (Wieslab assay)” value stood at 2030 nM and the “IC50, inhibition of human lectin complement pathway (Wieslab assay)” value was 33.2 nM. Besides, in the test with cynomolgus monkey C2 [2], the “IC50, inhibition of cynomolgus classical complement pathway (Wieslab assay)” value came out at 14100 nM and the “IC50, inhibition of cynomolgus lectin complement pathway (Wieslab assay)” value stood at 5780 nM. The same molecule had a Kd in the test with cynomolgus monkey C2 [3] of 485 nM. The affinity with human complement C2 [4], expressed as Kd, was 506 nM. Moreover, in the test with mouse C2, the binding result was “binds”.

B2: RF16-191G (antibody, V domains shown)
VH: EVQLLESGGGLVQPGGSLRLSCAASGFTFSKYWMGWVRQAPGKGLEWVSSIYSSGGWTYYADSVKGRFTISRDNSKNTLYLQMNSLRAEDTAVYYCARRPRSFSGSYYRAFDIWGQGTMVTVSS
VL: DIQMTQSPSSLSASVGDRVTITCRASQSITDYLNWYQQKPGKAPKLLIYAASSLQSGVPSRFSGSGSGTDFTLTISSLQPEDFATYYCQQSYSSSITFGQGTRLDLKR
Regarding B2, in the test with human complement C2 [1], the “IC50, inhibition of human classical complement pathway (Wieslab assay)” value was 1.64 nM. The “IC50, inhibition of human lectin complement pathway (Wieslab assay)” value with human complement C2 [1] came out at 1.62 nM. Also, in the test with cynomolgus monkey C2 [2], the “IC50, inhibition of cynomolgus classical complement pathway (Wieslab assay)” value was found to be 8.73 nM. In addition, the “IC50, inhibition of cynomolgus lectin complement pathway (Wieslab assay)” value in the test with cynomolgus monkey C2 [2] came to 42.9 nM. In addition, the “IC50, inhibition of human classical pathway (hemolysis assay)” value with human complement C2 [5] came out at 94 nM. The “IC50, inhibition of cyno classical pathway (hemolysis assay)” value with cynomolgus monkey C2 [6] worked out at 213 nM. The Kd in the test with cynomolgus monkey C2 [7] was determined as 87.3 nM; in the test with cynomolgus monkey C2 [3], 35.7 nM; with human complement C2 [8], 13 nM; in the test with human complement C2 [4], 18.9 nM. The binding result with mouse C2 was “binds”.

B3: RF16-242 (antibody, V domains shown)
VH: EVQLLQSGAEVKKPGESLKISCKGSGYSFTSYWIGWVRQMPGKGLEWMGIIYPGDSDTRYSPSFQGQVTISADKSISTAYLQWSSLKASDTAMYYCARRGHYGDYFDYWGQGTLVTVSS
VL: SYELTQPPSVSVSPGQTARITCSGDALPKKYAYWYHQKSGQAPVLVIYEDRRRPSEIPERFSGSSSGTMATLTITGAQVEDEGVYFCYSRDRAGNQRVFGGGTQLTVLG
Take B3: in the test with human complement C2 [1], the “IC50, inhibition of human classical complement pathway (Wieslab assay)” value turned out to be 9.19 nM. In addition, the “IC50, inhibition of human lectin complement pathway (Wieslab assay)” value in the test with human complement C2 [1] turned out to be 2.91 nM. In the test with cynomolgus monkey C2 [2], the “IC50, inhibition of cynomolgus classical complement pathway (Wieslab assay)” value worked out at 8.97 nM. Besides, in the test with cynomolgus monkey C2 [2], the “IC50, inhibition of cynomolgus lectin complement pathway (Wieslab assay)” value turned out to be 91.1 nM. In the test with human complement C2 [5], the “IC50, inhibition of human classical pathway (hemolysis assay)” value was found to be 55.4 nM. Besides, in the test with cynomolgus monkey C2 [6], the “IC50, inhibition of cyno classical pathway (hemolysis assay)” value worked out at 642 nM. In addition, the Kd worked out at 134 nM in the test with cynomolgus monkey C2 [7]; 5.2 nM with cynomolgus monkey C2 [3]; 16 nM with human complement C2 [8]; 7 nM with human complement C2 [4]; 460 nM with human complement C2 [9]; 32000 nM with human complement C2 [10]. Besides, the dissociation constant (Kd) with human complement C2 [11] was found to be 11600 nM.

B4: RF16-214G (antibody, V domains shown)
VH: EVQLLESGGGLVQPGGSLRLSCAASGFTFSWYQMMWVRQAPGKGLEWVSRIYPSGGGTAYADSVKGRFTISRDNSKNTLYLQMNSLRAEDTAVYYCARDAGYGDNWGQGTLVTVSS
VL: SYELTQPPSVSVSPGQTASITCSGDKLGEKYASWYQQKPGQSPVLVIYQDRKRPSGIPERFSGSNSGNTATLTISGTQAMDEADYYCQAWDTRAVVFGGGTKLTVLG
Turning to B4, the “IC50, inhibition of human classical complement pathway (Wieslab assay)” value with human complement C2 [1] was 20.3 nM. Also, in the test with human complement C2 [1], the “IC50, inhibition of human lectin complement pathway (Wieslab assay)” value came out at 6.4 nM. The “IC50, inhibition of cynomolgus classical complement pathway (Wieslab assay)” value in the test with cynomolgus monkey C2 [2] was 135 nM. Besides, in the test with cynomolgus monkey C2 [2], the “IC50, inhibition of cynomolgus lectin complement pathway (Wieslab assay)” value was determined as 223 nM. In the test with human complement C2 [5], the “IC50, inhibition of human classical pathway (hemolysis assay)” value turned out to be 337 nM. For the same molecule, in the test with cynomolgus monkey C2 [6], the “IC50, inhibition of cyno classical pathway (hemolysis assay)” value is 396 nM. In addition, the Kd in the test with cynomolgus monkey C2 [7] is 111 nM; with cynomolgus monkey C2 [3] it was 41.5 nM; in the test with human complement C2 [8], 53.9 nM; with human complement C2 [4], 25.1 nM; with human complement C2 [9], 176 nM; with human complement C2 [10] it was 3340 nM. Also, the Kd with human complement C2 [11] is 1480 nM. In addition, the binding result in the test with mouse C2 was “binds”.

The values above are taken from patent US20220332804A1 (CSL INNOVATION, published 2022).
